T1: FcγRIIb extracellular domain with C-terminal His tag (human, UniProt P31994 43-217)
T1 construct: extracellular domain; also called FcgRIIb; 2b; not shown: His tag attached to the C terminus
T1 sequence (looked up): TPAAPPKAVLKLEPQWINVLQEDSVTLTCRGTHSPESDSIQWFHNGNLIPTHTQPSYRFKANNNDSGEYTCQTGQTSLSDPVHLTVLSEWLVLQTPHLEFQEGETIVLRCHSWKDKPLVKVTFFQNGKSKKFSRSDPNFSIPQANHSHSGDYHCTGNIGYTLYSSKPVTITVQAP

B1: GpH7-A5/GpH7-B3 variant A327_16H/GpL16-k0 (antibody, human IgG1, kappa)
heavy 1: not shown
heavy 2: not shown
light: DIVMTQSPLSLPVTPGEPASISCQASESLVHSNRNTYLHWYLQKPGQSPQLLIYKVSNRFSGVPDRFSGSGSGTDFTLKISRVEAEDVGVYYCSQNTHVPPTFGQGTKVEIERTVAAPSVFIFPPSDEQLKSGTASVVCLLNNFYPREAKVQWKVDNALQSGNSQESVTEQDSKDSTYSLSSTLTLSKADYEKHKVYACEVTHQGLSSPVTKSFNRGEC
notes: Heterodimerized IgG1; alteration in one H chain only; also called He Ab
B2: GpH7-A5/GpH7-B3 variant A327_20W/GpL16-k0 (antibody, human IgG1, kappa)
heavy 1: not shown
heavy 2: not shown
light: B1 light
notes: as for B1
B3: GpH7-A5/GpH7-B3 variant K326_04F/GpL16-k0 (antibody, human IgG1, kappa)
heavy 1: not shown
heavy 2: not shown
light: B1 light
notes: as for B1
B4: GpH7-A5/GpH7-B3 variant K326_07I/GpL16-k0 (antibody, human IgG1, kappa)
heavy 1: not shown
heavy 2: not shown
light: B1 light
notes: as for B1
B5: GpH7-A5/GpH7-B3 variant K326_03V/GpL16-k0 (antibody, human IgG1, kappa)
heavy 1: not shown
heavy 2: not shown
light: B1 light
notes: as for B1
B6: GpH7-A5/GpH7-B3 variant L328_01G/GpL16-k0 (antibody, human IgG1, kappa)
heavy 1: not shown
heavy 2: not shown
light: B1 light
notes: as for B1
B7: GpH7-A5/GpH7-B3 variant L328_02A/GpL16-k0 (antibody, human IgG1, kappa)
heavy 1: not shown
heavy 2: not shown
light: B1 light
notes: as for B1
B8: GpH7-A5/GpH7-B3 variant K326_19Q/GpL16-k0 (antibody, human IgG1, kappa)
heavy 1: not shown
heavy 2: not shown
light: B1 light
notes: as for B1
B9: GpH7-A5/GpH7-B3 variant K326_09D/GpL16-k0 (antibody, human IgG1, kappa)
heavy 1: not shown
heavy 2: not shown
light: B1 light
notes: as for B1
B10: GpH7-A5/GpH7-B3 variant K326_08L/GpL16-k0 (antibody, human IgG1, kappa)
heavy 1: not shown
heavy 2: not shown
light: B1 light
notes: as for B1
B11: GpH7-A5/GpH7-B3 variant A327_18N/GpL16-k0 (antibody, human IgG1, kappa)
heavy 1: not shown
heavy 2: not shown
light: B1 light
notes: as for B1
B12: GpH7-A5/GpH7-B3 variant K326_20W/GpL16-k0 (antibody, human IgG1, kappa)
heavy 1: not shown
heavy 2: not shown
light: B1 light
notes: as for B1
B13: GpH7-A5/GpH7-B3 variant K326_10E/GpL16-k0 (antibody, human IgG1, kappa)
heavy 1: not shown
heavy 2: not shown
light: B1 light
notes: as for B1
B14: GpH7-A5/GpH7-B3 variant L328_03V/GpL16-k0 (antibody, human IgG1, kappa)
heavy 1: not shown
heavy 2: not shown
light: B1 light
notes: as for B1
B15: GpH7-A5/GpH7-B3 variant K326_06M/GpL16-k0 (antibody, human IgG1, kappa)
heavy 1: not shown
heavy 2: not shown
light: B1 light
notes: as for B1
B16: GpH7-A5/GpH7-B3 variant K326_15Y/GpL16-k0 (antibody, human IgG1, kappa)
heavy 1: not shown
heavy 2: not shown
light: B1 light
notes: as for B1

Target: T1, FcγRIIb extracellular domain with …
Assay: SPR (Biacore), relative binding
Description: (§1) Analysis of interaction between objective antibody and the FcγR was carried out using Biacore T100 (GE Healthcare). HBS-EP+ (GE Healthcare) was used as the running buffer, and the measurement temperature was set to 25° C. Chips produced by immobilizing the antigen peptide by the amine coupling method to a Series S Sencor Chip CM5 (GE Healthcare), or alternatively, chips produced by allowing preliminarily biotinylated antigen peptides to interact with and immobilize onto a Series S Sensor Chip SA (certified) (GE Healthcare) were used. Antibodies of interest were captured onto an antigen peptide-immobilized chip, and allowed to interact to each FcγR diluted with running buffer. To regenerate and repeatedly use the chip, the antibodies captured on the chip were washed off by reacting 10 mM glycine-HCl, pH 1.5.
(§2) The FcγR-binding activity of each antibody was assessed primarily using as an indicator the FcγR-binding activity and dissociation constant for FcγR.

He/Con_2b (IIb binding)	Binder
63.5 % of GpH7-A5/GpH7-B3/GpL16-k0 (=100)	B1
78.8 % of GpH7-A5/GpH7-B3/GpL16-k0 (=100)	B2
155 % of GpH7-A5/GpH7-B3/GpL16-k0 (=100)	B3
199 % of GpH7-A5/GpH7-B3/GpL16-k0 (=100)	B4
175 % of GpH7-A5/GpH7-B3/GpL16-k0 (=100)	B5
80.2 % of GpH7-A5/GpH7-B3/GpL16-k0 (=100)	B6
144 % of GpH7-A5/GpH7-B3/GpL16-k0 (=100)	B7
139 % of GpH7-A5/GpH7-B3/GpL16-k0 (=100)	B8
193 % of GpH7-A5/GpH7-B3/GpL16-k0 (=100)	B9
177 % of GpH7-A5/GpH7-B3/GpL16-k0 (=100)	B10
113 % of GpH7-A5/GpH7-B3/GpL16-k0 (=100)	B11
148 % of GpH7-A5/GpH7-B3/GpL16-k0 (=100)	B12
200 % of GpH7-A5/GpH7-B3/GpL16-k0 (=100)	B13
126 % of GpH7-A5/GpH7-B3/GpL16-k0 (=100)	B14
165 % of GpH7-A5/GpH7-B3/GpL16-k0 (=100)	B15
159 % of GpH7-A5/GpH7-B3/GpL16-k0 (=100)	B16

Target: T2, FcγRIIIa extracellular domain with C-terminal His tag (human, UniProt P08637 17-208)
T2 construct: extracellular domain; also called FcgRIIIa; 3a; not shown: His tag attached to the C terminus
T2 sequence (P08637 17-208): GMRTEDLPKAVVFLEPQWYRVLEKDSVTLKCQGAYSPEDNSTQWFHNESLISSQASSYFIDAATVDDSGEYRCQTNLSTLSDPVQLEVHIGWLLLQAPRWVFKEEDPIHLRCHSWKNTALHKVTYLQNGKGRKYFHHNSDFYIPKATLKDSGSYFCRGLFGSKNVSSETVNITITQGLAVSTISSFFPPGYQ
Assay: SPR (Biacore), relative binding
Description: as §1, §2

He/Con_3a (IIIa binding)	Binder
43.7 % of GpH7-A5/GpH7-B3/GpL16-k0 (=100)	B1
51.2 % of GpH7-A5/GpH7-B3/GpL16-k0 (=100)	B2
103 % of GpH7-A5/GpH7-B3/GpL16-k0 (=100)	B3
139 % of GpH7-A5/GpH7-B3/GpL16-k0 (=100)	B4
122 % of GpH7-A5/GpH7-B3/GpL16-k0 (=100)	B5
44.9 % of GpH7-A5/GpH7-B3/GpL16-k0 (=100)	B6
79.1 % of GpH7-A5/GpH7-B3/GpL16-k0 (=100)	B7
106 % of GpH7-A5/GpH7-B3/GpL16-k0 (=100)	B8
134 % of GpH7-A5/GpH7-B3/GpL16-k0 (=100)	B9
114 % of GpH7-A5/GpH7-B3/GpL16-k0 (=100)	B10
61.1 % of GpH7-A5/GpH7-B3/GpL16-k0 (=100)	B11
84.8 % of GpH7-A5/GpH7-B3/GpL16-k0 (=100)	B12
124 % of GpH7-A5/GpH7-B3/GpL16-k0 (=100)	B13
78.7 % of GpH7-A5/GpH7-B3/GpL16-k0 (=100)	B14
115 % of GpH7-A5/GpH7-B3/GpL16-k0 (=100)	B15
112 % of GpH7-A5/GpH7-B3/GpL16-k0 (=100)	B16

Target: T2, FcγRIIIa extracellular domain with …
Assay: SPR (Biacore); He/Con_3a divided by He/Con_2b (reference: binding to FcγRIIb)
Description: as §1, §2

He_3a/2b (IIIa/IIb) [ratio]	Binder
0.69	B1
0.65	B2
0.66	B3
0.7	B4
0.7	B5
0.56	B6
0.55	B7
0.76	B8
0.69	B9
0.65	B10
0.54	B11
0.57	B12
0.62	B13
0.63	B14
0.7	B15
0.7	B16

— patent US20180155451A1 (published 2018)
